Positions count from the first letter of the chain named. Like-named read-outs stand apart in the source and are kept apart here.
What was measured:
human FcγRIa [1] = target: T1, human FcγRIa (human, UniProt P12314); assay: SPR
T1 chain: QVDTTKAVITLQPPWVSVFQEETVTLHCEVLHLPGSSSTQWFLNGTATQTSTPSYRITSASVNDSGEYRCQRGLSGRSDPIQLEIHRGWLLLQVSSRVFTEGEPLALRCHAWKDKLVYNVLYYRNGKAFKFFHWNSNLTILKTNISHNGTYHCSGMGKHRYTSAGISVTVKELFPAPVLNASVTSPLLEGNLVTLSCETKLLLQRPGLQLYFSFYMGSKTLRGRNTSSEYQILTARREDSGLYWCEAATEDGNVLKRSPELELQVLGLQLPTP

human FcγRIIb [2] = target: T2, human FcγRIIb (human, UniProt P31994); assay: SPR
T2 chain: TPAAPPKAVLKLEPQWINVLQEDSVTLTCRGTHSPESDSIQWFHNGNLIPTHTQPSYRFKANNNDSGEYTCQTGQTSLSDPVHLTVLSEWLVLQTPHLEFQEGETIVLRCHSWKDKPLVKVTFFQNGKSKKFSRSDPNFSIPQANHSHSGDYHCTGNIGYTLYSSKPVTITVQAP

human FcγRIa [3] = target: T1, human FcγRIa; assay: SPR
human FcγRIIb [4] = target: T2, human FcγRIIb; assay: SPR
human FcγRIa [5] = target: T1, human FcγRIa; assay: SPR
human FcRn = human FcRn (human); assay: SPR, pH 6.0
human FcγRIIb [6] = target: T2, human FcγRIIb; assay: SPR
human FcγRIIb [7] = target: T2, human FcγRIIb; assay: SPR

human FcRn (human), sequence (chain, as listed by the source, chain 1 of 2): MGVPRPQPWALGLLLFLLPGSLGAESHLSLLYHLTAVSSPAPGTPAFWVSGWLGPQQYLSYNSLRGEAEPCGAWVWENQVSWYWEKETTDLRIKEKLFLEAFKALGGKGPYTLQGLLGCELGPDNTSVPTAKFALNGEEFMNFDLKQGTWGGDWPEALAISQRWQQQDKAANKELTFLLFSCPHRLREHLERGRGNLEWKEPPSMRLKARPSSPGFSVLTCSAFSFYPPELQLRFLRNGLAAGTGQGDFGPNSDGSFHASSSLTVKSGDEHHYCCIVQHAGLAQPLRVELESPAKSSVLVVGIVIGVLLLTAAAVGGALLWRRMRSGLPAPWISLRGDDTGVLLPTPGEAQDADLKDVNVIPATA
human FcRn (human), sequence (chain, as listed by the source, chain 2 of 2): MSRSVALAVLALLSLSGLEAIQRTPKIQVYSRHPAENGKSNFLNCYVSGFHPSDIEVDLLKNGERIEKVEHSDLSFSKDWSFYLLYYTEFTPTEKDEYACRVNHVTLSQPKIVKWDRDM

B1: BP268 (antibody)
chain 1: QVQLQESGPGLVKPSETLSLTCAVSGHSISHDHAWSWVRQPPGEGLEWIGFISYSGITNYNPSLQGRVTISRDNSKNTLYLQMNSLRAEDTAVYYCARSLARTTAMDYWGEGTLVTVSSASTKGPSVFPLAPSSKSTSGGTAALGCLVKDYFPEPVTVSWNSGALTSGVHTFPAVLQSSGLYSLSSVVTVPSSSLGTQTYICNVNHKPSNTKVDKKVEPKSCDKTHTCPPCPAPDLLGDDSVFLFPPKPKDTLMISRTPEVTCVVVDVSEEDGEVKFNWYVDGVEVHNAKTKPREEQDNSTYRVVSVLTVLHQDWLNGKEYKCKVSNKALPAPIEKTISKAKGQPREPQVYTLPPSRDELTKNQVSLTCLVKGFYPSDIAVEWESNGQPENNYKTTPPVLDSDGSFFLYSKLTVDKSRWQQGNVFSCSVMHEALHNHYTQESLSLSP
chain 2: not shown
Kd (human FcγRIa [1]): 4.5 nM
Kd (human FcγRIIb [2]): 92 nM

B2: BP435 (antibody)
chain 1: B1 chain 1 with E270D, K328A, A332R, I334T
chain 2: not shown
Kd (human FcγRIa [1]): 1 nM

B3: BP230 (antibody)
chain 1: B1 chain 1 with E270D, A332R
chain 2: not shown
Kd (human FcγRIa [3]): 10 nM
Kd (human FcγRIIb [4]): 18 nM

B4: BP220 (antibody)
chain 1: B1 chain 1 with E270D, A332K
chain 2: not shown
Kd (human FcγRIa [5]): 20 nM

B5: Fv4-IgG1 (antibody)
chain 1: not shown
chain 2: DIQMTQSPSSLSASVGDSVTITCQASTDISSHLNWYQQKPGKAPELLIYYGSHLLSGVPSRFSGSGSGTDFTFTISSLEAEDAATYYCGQGNRLPYTFGQGTKVEIERTVAAPSVFIFPPSDEQLKSGTASVVCLLNNFYPREAKVQWKVDNALQSGNSQESVTEQDSKDSTYSLSSTLTLSKADYEKHKVYACEVTHQGLSSPVTKSFNRGEC
Kd (human FcRn): 2400 nM

B6: BP546 (antibody)
chain 1: B1 chain 1 with E270D, A332R, L360M
chain 2: not shown
Kd (human FcγRIa [3]): 9 nM
Kd (human FcγRIIb [4]): 15 nM

B7: BP130 (antibody)
chain 1: B1 chain 1 with D239G, E270H, G273P, D298Y, V325M, A332K
chain 2: not shown
Kd (human FcγRIIb [6]): 300 nM

B8: BP544 (antibody)
chain 1: B1 chain 1 with E270D, A332R, R357Q
chain 2: not shown
Kd (human FcγRIa [3]): 9.8 nM
Kd (human FcγRIIb [4]): 17 nM

B9: BP543 (antibody)
chain 1: B1 chain 1 with E270Q, A332R
chain 2: not shown
Kd (human FcγRIa [3]): 23 nM
Kd (human FcγRIIb [4]): 20 nM

B10: Fv4-YTE (antibody)
chain 1: B1 chain 1 with D235E, D239G, D240P, M254Y, S256T, T258E, E270H, G273P, D298Y, E441K
chain 2: B5 chain 2
Kd (human FcRn): 210 nM

B11: F1167 (antibody)
chain 1: QVQLQESGPGLVKPSETLSLTCAVSGHSISHDHAWSWVRQPPGEGLEWIGFISYSGITNYNPSLQGRVTISRDNSKNTLYLQMNSLRAEDTAVYYCARSLARTTAMDYWGEGTLVTVSSASTKGPSVFPLAPSSKSTSGGTAALGCLVKDYFPEPVTVSWNSGALTSGVHTFPAVLQSSGLYSLSSVVTVPSSSLGTQTYICNVNHKPSNTKVDKKVEPKSCDKTHTCPPCPAPELLGGPSVFLFPPKPKDTLYITREPEVTCVVVDVSHEDPEVKFNWYVDGVEVHNAKTKPREEQYNSTYRVVSVLTVLHQDWLNGKEYKCKVSNKALPAPIEKTISKAKGQPREPQVYTLPPSRDELTKNQVSLTCLVKGFYPSDIAVEWESNGQPENNYKTTPPVLDSDGSFFLYSKLTVDKSRWQQGNVFNCSVMHEALHNHYTQKSLSLSP
chain 2: B5 chain 2
Kd (human FcRn): 250 nM

B12: BP541 (antibody)
chain 1: B1 chain 1 with E270D, K276Q, A332R
chain 2: not shown
Kd (human FcγRIa [3]): 11 nM
Kd (human FcγRIIb [4]): 16 nM

B13: BP249 (antibody)
chain 1: B1 chain 1 with L236Y, E270D, A332R
chain 2: not shown
Kd (human FcγRIa [5]): 7 nM

B14: F1170 (antibody)
chain 1: B11 chain 1 with Y254M, T256S, E258T, N426S, M430L, N436S, Q440R, S442E
chain 2: B5 chain 2
Kd (human FcRn): 150 nM

B15: BP262 (antibody)
chain 1: B1 chain 1 with D235E, D298Y
chain 2: not shown
Kd (human FcγRIa [1]): 10 nM
Kd (human FcγRIIb [2]): 120 nM

B16: BP151 (antibody)
chain 1: B1 chain 1 with L236Y, E270H, G273P, D298Y, K328A, A332R
chain 2: not shown
Kd (human FcγRIIb [6]): 40 nM

B17: BP237 (antibody)
chain 1: B1 chain 1 with L236Y, S269Q, E270D, K328A, A332K
chain 2: not shown
Kd (human FcγRIIb [7]): 100 nM

B18: F1166 (antibody)
chain 1: B11 chain 1 with N426S, Q440R, S442E
chain 2: B5 chain 2
Kd (human FcRn): 210 nM

B19: BP243 (antibody)
chain 1: B1 chain 1 with L236Y, E270D, D298Y, A332R
chain 2: not shown
Kd (human FcγRIa [5]): 3 nM

B20: F1171 (antibody)
chain 1: B11 chain 1 with Y254M, T256S, E258T, M430L, N436S
chain 2: B5 chain 2
Kd (human FcRn): 240 nM

B21: BP269 (antibody)
chain 1: B1 chain 1 with D235E
chain 2: not shown
Kd (human FcγRIa [1]): 14 nM
Kd (human FcγRIIb [2]): 110 nM

B22: BP239 (antibody)
chain 1: B1 chain 1 with L236Y, S269Q, E270D, K328A, A332R
chain 2: not shown
Kd (human FcγRIIb [7]): 60 nM

B23: BP228 (antibody)
chain 1: B1 chain 1 with D235E, L236Y, S269Q, E270D, D298Y, K328D, A332R
chain 2: not shown
Kd (human FcγRIIb [7]): 40 nM

B24: BP233 (antibody)
chain 1: B1 chain 1 with D235E, L236Y, E270H, D298Y, A332K
chain 2: not shown
Kd (human FcγRIa [5]): 70 nM

B25: BP426 (antibody)
chain 1: B1 chain 1 with S269A, E271D, D298Y, A332R
chain 2: not shown
Kd (human FcγRIa [1]): 1 nM

B26: BP246 (antibody)
chain 1: B1 chain 1 with S269Q, E270D, K328A, A332R
chain 2: not shown
Kd (human FcγRIa [5]): 8 nM

B27: BP548 (antibody)
chain 1: B1 chain 1 with E270D, A332R, Q421E
chain 2: not shown
Kd (human FcγRIa [3]): 12 nM
Kd (human FcγRIIb [4]): 19 nM

B28: BP264 (antibody)
chain 1: B1 chain 1 with A332R
chain 2: not shown
Kd (human FcγRIa [1]): 7.4 nM

B29: F1172 (antibody)
chain 1: B11 chain 1 with Y254M, T256S, E258T, N426S, N436H, Q440R, S442E
chain 2: B5 chain 2
Kd (human FcRn): 400 nM

Reference: patent US20190112393 (published 2019)
